Target: the molecule itself
Experiment: native gel or EMSA; purified His-GSAATAt (300 µM), no pretreatment, non-reducing/non-denaturing polyacrylamide gel; dimer to monomers

B1: recombinant His-tagged Arabidopsis glutamate-1-semialdehyde aminotransferase 1, wild type (enzyme)
chain: not shown
notes: Arabidopsis thaliana GSAAT1 (AtGSA1, AT5G63570), mature protein without the transit peptide 1-38 according to UniProt P42799; pET-28a(+); the methods remove 1-38; also called His-GSAAT; His-GSAATAt; source: E. coli Rosetta, purified (Ni-NTA); not shown: His6, N-terminal, kept
stoichiometry N: 2

Reference: article PMC12678314, “Redox regulation of glutamate-1-semialdehyde aminotransferase modulates the synthesis of 5-aminolevulinic acid in Arabidopsis” (Frontiers in Plant Science, 2025)
